Measurements reported in patent US20250101098A1 (R P SCHERER TECHNOLOGIES, published 2025).

Legend:
[1] = biological target: T1, human nectin-4 protein expressed on the surface of cells (human, UniProt Q96NY8 32-510); experiment: cell-based or functional assay
T1 sequence: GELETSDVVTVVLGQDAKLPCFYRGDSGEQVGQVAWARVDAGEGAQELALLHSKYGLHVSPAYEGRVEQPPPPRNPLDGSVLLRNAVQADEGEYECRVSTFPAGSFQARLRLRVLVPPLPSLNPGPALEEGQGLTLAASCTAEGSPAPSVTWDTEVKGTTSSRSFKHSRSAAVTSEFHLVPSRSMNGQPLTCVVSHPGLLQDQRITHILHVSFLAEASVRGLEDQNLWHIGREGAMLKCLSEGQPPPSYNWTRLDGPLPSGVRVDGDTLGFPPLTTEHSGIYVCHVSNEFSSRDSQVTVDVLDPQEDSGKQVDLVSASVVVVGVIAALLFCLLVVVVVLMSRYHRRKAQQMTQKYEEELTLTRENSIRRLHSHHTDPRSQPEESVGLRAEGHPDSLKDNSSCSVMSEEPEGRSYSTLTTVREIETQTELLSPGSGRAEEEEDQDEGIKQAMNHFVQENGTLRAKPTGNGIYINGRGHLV

[2] = biological target: T2, recombinant human Nectin-4-His protein (human, UniProt Q96NY8 32-349); experiment: ELISA, recombinant antibody on coated antigen
T2 construct: Rescreening antigen and bought ELISA antigen are treated as one molecule; also called human Nectin-4-His tagged; Ag1; not shown: His tag
T2 sequence: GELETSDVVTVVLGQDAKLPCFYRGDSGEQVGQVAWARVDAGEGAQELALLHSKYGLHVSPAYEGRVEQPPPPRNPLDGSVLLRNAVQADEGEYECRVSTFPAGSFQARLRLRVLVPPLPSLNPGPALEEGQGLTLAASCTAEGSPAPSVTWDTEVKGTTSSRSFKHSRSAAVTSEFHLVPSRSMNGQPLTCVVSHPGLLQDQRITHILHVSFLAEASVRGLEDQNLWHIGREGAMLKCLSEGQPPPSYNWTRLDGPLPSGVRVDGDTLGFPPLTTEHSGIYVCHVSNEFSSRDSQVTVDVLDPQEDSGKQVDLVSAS

[3] = biological target: T1, human nectin-4 protein expressed on the …; experiment: flow cytometry, HEK 293 cells overexpressing the target
Protocol: (§1) Human embryonic kidney (HEK) 293 cells overexpressing human, cynomolgus monkey, rat, or mouse nectin-4 protein were produced. Cells were lifted with Versene to preserve cell surface proteins and were resuspended at 10e6/mL in PBS+2% FBS. 100 μl was added to a flow tube to test […]. Primary antibodies were diluted to […] and 10 μL was added for a total of 1 μg/test. Primary antibodies (or ADCs) were incubated with cells for 1 h on ice. Then, cells were washed 1× in 2 mL PBS+2% FBS and secondary antibody was added for detection. AF488-conjugated anti-human antibody from Jackson Immunoresearch, diluted according to the manufacturer's instructions+50% glycerol, was used at 1 μL/test-diluted to ⅕ the concentration in PBS+2% FBS and 5 μL were added per tube. The secondary reagent was incubated with the cells for 30 min, then cells were washed 2× in PBS+2% FBS and analyzed by flow cytometry on a BD FacsCanto instrument equipped with FACSDiva software.
(§2) Lead clones were tested for binding to human, cynomolgus monkey, rat, or mouse nectin-4 protein expressed on the surface of HEK 293 cells. Enfortumab was included as a positive control and an anti-FITC reactive antibody was included as a negative control.

[4] = biological target: T3, cynomolgus monkey nectin-4 protein expressed on the surface of HEK 293 cells (cynomolgus monkey, UniProt A0A2K5WES1 32-510); experiment: as above
T3 construct: whole, on cells
T3 sequence: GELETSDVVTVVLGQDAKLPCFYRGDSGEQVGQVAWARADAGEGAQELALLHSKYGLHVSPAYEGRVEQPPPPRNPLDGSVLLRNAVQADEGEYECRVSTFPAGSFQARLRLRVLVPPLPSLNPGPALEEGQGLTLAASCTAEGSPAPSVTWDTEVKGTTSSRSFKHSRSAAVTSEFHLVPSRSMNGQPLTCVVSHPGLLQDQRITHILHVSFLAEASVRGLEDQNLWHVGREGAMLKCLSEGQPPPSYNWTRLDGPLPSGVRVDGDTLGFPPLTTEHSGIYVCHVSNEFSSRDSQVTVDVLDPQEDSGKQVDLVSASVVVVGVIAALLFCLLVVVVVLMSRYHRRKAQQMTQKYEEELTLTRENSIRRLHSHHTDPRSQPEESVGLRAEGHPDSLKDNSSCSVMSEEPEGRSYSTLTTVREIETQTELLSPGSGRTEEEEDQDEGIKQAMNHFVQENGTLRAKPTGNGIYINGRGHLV
Protocol: as §1, §2

[5] = biological target: T4, rat nectin-4 protein expressed on the surface of HEK 293 cells (rat, UniProt D3ZET1 31-509); experiment: as above
T4 construct: whole, on cells
T4 sequence: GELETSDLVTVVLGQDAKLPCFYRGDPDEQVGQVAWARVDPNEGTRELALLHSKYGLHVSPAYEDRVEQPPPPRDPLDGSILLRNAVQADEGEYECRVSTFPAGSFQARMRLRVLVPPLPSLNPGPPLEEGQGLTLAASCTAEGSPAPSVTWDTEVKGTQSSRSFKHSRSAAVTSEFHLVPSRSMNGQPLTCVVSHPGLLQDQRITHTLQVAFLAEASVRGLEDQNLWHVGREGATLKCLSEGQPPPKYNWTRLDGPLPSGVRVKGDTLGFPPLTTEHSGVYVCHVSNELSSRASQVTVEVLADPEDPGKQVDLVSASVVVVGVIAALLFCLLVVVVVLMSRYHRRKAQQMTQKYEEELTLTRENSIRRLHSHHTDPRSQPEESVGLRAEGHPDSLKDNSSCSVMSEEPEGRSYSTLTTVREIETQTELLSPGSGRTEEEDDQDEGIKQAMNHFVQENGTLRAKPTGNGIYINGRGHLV
Protocol: as §1, §2

[6] = biological target: T5, mouse nectin-4 protein expressed on the surface of HEK 293 cells (mouse, UniProt Q8R007 31-508); experiment: as above
T5 construct: whole, on cells
T5 sequence (looked up): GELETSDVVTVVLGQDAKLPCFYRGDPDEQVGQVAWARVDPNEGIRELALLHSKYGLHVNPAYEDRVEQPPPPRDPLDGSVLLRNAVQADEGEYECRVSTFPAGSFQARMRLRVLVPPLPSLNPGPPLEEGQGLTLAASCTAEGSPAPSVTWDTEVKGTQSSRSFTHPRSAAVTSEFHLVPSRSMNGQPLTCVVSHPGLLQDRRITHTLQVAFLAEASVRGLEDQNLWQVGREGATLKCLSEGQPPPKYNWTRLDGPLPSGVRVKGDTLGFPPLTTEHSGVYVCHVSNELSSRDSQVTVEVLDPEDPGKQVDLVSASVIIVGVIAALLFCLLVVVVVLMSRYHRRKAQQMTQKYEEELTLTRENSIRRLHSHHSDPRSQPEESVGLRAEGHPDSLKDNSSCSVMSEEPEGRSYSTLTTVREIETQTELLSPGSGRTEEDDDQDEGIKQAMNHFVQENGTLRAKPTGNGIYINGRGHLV
Protocol: as §1, §2

[7] = biological target: T6, human nectin-4 protein expressed on the surface of cells (human, UniProt Q96NY8 32-510); experiment: cell-based or functional assay; remark: listed apart in the source
[8] = biological target: T6, human nectin-4 protein expressed on the …; experiment: flow cytometry, HEK 293 cells overexpressing the target
Protocol: as §1, §2

[9] = biological target: T2, recombinant human Nectin-4-His protein; experiment: ELISA, coated antigen
[10] = biological target: T1, human nectin-4 protein expressed on the …; experiment: cell-based or functional assay; remark: listed apart in the source

Row | Binder | IC50, in vitro potency, HEK Cells + Nectin-4 [1] | EC50 [2] | Flow data [3] | Flow data [4] | Flow data [5] | Flow data [6] | IC50, in vitro potency, HEK Cells + Nectin-4 [7] | Flow data [8] | EC50 [9] | Cell kill IC50, HekNectin4 [10] | Cell kill IC50, MDA-MB468 [10] | Cell kill IC50, SKBR3 [10]
1 | Nectin-4 Hybridoma 6C8H/6C8L (recombinant chimeric antibody) (antibody, V domains shown) VH: QVQLKQSGPGLVQPSQSLSITCTVSGFSLSTYGVHWVRQSPGKGLEWLGVIWSGGSTDYNAAFISRLTISKDNSKSQIFFKMNSLQADDTAIYYCARMMSWYFDVWGTGTTVTVSS VL: DIVMTQSQKFMSTSVGDRVSVTCKASQNVVTNVAWYQQKPGQSPKALIYSASYRYSGVPDRFTGSGSGTDFTLTISNVQSEDLAEYFCQQYNSYPLTFGAGTKLELK | 0.573 nM | 0.239 nM | 10200 | 11400 | 8920 | 194 | – | – | – | – | – | –
2 | Nectin-4 3C12H/3C12L (recombinant chimeric antibody) (antibody, V domains shown) VH: QVQLKQSGPGLVQPSQSLSITCTVSGFSLTTYGVHWVRQSPGKGLEWLGVIWSGGNTDYNAAFISRLSISKDNSKSQVFFKMNSLQADDTAIYYCARMTHWYFDVWGTGTTVTVSS VL: DIVMTQSQKFMSTTVGDRVSITCKASQNVVTAVAWYQQKPGQSPKLLIYSASNRYTGVPDRFTGSGSGTDFTLTISYMQSEDLADYFCQQYSSYPLTFGAGTKLELK | 0.919 nM | 0.282 nM | 8370 | 10600 | 5060 | 328 | – | – | – | – | – | –
3 | Nectin-4 7 E8H/7 E8L (recombinant chimeric antibody) (antibody, V domains shown) VH: QVQLKQSGPGLVQPSQSLSITCTVSGFSLATYGVHWVRQSPGKGLEWLGVIWSGGSTDYNAAFISRLSISKDNSKSQVFFKMNSLQADDTAIYYCARNSHWYFDVWGTGTTVTVSS VL: DIVMTQSQKFMSTSVGDRVSVTCKASQNVVTNVAWYQQKPGQSPKALIYSASYRYSGVPDRFTGSGSGTDFTLTISHVQSEDLAEYFCHQYNNYPYTFGGGTKLEIK | 0.89 nM | 0.361 nM | 9200 | 10400 | 5970 | 279 | – | – | – | – | – | –
4 | Nectin-4 12E11H/12E11L (recombinant chimeric antibody) (antibody, V domains shown, also called parental 12E11 clone) VH: QVQLKQSGPGLVQPSQSLSITCTVSGFSLTTYGVHWVRQSPGKGLEWLGVIWSGGSTDCNGAFISRLSIIKDNSKSQVFFKMNSLQADDTAIYYCARMTHWYFDVWGTGTTVTVSS VL: DIVMTQSQKFMSTTVGDRVSITCKASQNVNTAVAWYQQKPGQSPKLLIYSASYRYTGVPDRFTGSGSGTDFTLTISNMQSEDLADYFCQQYSNYPLTFGAGTKLELK | 0.987 nM | 0.252 nM | 8620 | 10400 | 1900 | 230 | – | – | – | – | – | –
5 | Enfortumab (antibody, V domains shown) VH: EVQLVESGGGLVQPGGSLRLSCAASGFTFSSYNMNWVRQAPGKGLEWVSYISSSSSTIYYADSVKGRFTISRDNAKNSLSLQMNSLRDEDTAVYYCARAYYYGMDVWGQGTTVTVSS VL: DIQMTQSPSSVSASVGDRVTITCRASQGISGWLAWYQQKPGKAPKFLIYAASTLQSGVPSRFSGSGSGTDFTLTISSLQPEDFATYYCQQANSFPPTFGGGTKVEIKR | – | – | – | 20000 | 45500 | 3220 | 0.685 nM | 17100 | – | – | – | –
6 | Nectin-4 5D9H/5D9L (recombinant chimeric antibody) (antibody, V domains shown, also called Nectin-4 5D9 chimeric mAb) VH: QVQLKQSGPGLVQPSQSLSITCTVSGFSLTNYGVHWVRQSPGKGLEWLGVIWSGGSTDYNAAFVSRLSISRDNSKSQVFFKMNSLQADDTAIYYCARSGKWYYFDYWGQGTTLTVSS VL: DIQMTQSPASLSVSVGETVTITCRASENIYSNLAWYQQKQGKSPQLLVYAATNLADGVPSRFSGSGSGTQYSLKINSLQSEDFGSYYCQHFWGTPTFGGGTKLEIK | 0.446 nM | 0.192 nM | 11200 | 12600 | 2140 | 189 | – | – | 0.191 nM | 0.207 nM | 1.31 nM | 8.47 nM
